Assay results from the supplement of paper PMC10126150.
± gives the standard deviation of the averaged measurements.

Each sequence was assayed on ATP (assay: switch fluorescence ratio, 500 uM ATP over buffer (Cy3 cluster intensity, sum of 5 cycles each) (fold (ratio)); higher = stronger signal-on switching upon ATP binding; sequences stand for … in TCGTCGGCAGCGTCAGATGTGTATAAGAGACAGTTTTTTTTTTTTTTTTTTTTTTTTT…TC). Details: aptamer strand: ATP DNA aptamer (quencher-CACCTGGGGGAGTATTGCGGAGGAAGG + anchor), 100 nM annealed; ATP concentration: 500 uM.
Summary of the method: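 Clusters with intensities outside 100-1000 RFU were excluded. The remaining Cy3-labelled switching-strand clusters on a modified Illumina MiSeq flow-cell had been annealed to 100 nM quencher-labelled ATP aptamer and imaged in selection buffer, then after 15 min with 500 uM ATP at 22 °C, for five cycles separated by NaOH stripping and re-annealing. The fluorescence ratio, averaged per switch-domain sequence, is each cluster's summed target-cycle Cy3 intensity over its summed buffer-cycle Cy3 intensity.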
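Note: ATP exposure 15 min at 22 °C before imaging.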

| Sequence | switch fluorescence ratio |
| --- | --- |
| GCCGGCGCAC | 1.026 ± 0.0057 |
| GCCGGCGTCG | 1.03 ± 0.035 |
| GCCGGCTTCT | 1.02 ± 0.016 |
| GCCGGGATAG | 1.23 ± 0.35 |
| GCCGGGGTCG | 1.02 ± 0.037 |
| GCCGGGGTGC | 1.06 ± 0.028 |
| GCCGGGGTTG | 1 ± 0.021 |
| GCCGGGTATG | 1.02 ± 0.022 |
| GCCGTACCTG | 1.041 ± 0.00042 |
| GCCGTACTCT | 1.1 ± 0.1 |
| GCCGTAGACC | 0.9994 ± 0.0092 |
| GCCGTAGGGC | 0.985 ± 0.011 |
| GCCGTTCTTA | 1.05 ± 0.037 |
| GCCTAATATG | 0.9793 ± 0.0083 |
| GCCTACAGGT | 1.03 ± 0.019 |
| GCCTATAACT | 1.016 ± 0.0077 |
| GCCTATATTT | 0.994 ± 0.017 |
| GCCTCCTTTT | 1.05 ± 0.019 |
| GCCTCGTTGG | 0.98 ± 0.012 |
| GCCTGATGCG | 0.997 ± 0.055 |
| GCCTGCTGGA | 1.002 ± 0.0023 |
| GCCTGGAAAT | 1 ± 0.021 |
| GCCTGGAGTA | 1.03 ± 0.065 |
| GCCTGGGACC | 0.996 ± 0.022 |
| GCCTGGGGGG | 1.02 ± 0.042 |

| Sequence | switch fluorescence ratio |
| --- | --- |
| GCCTGGTCAG | 0.979 ± 0.013 |
| GCCTGTAAGT | 0.989 ± 0.032 |
| GCCTGTACTT | 0.9883 ± 0.0046 |
| GCCTGTTTGG | 1.014 ± 0.01 |
| GCCTTACAGT | 0.985 ± 0.015 |
| GCCTTACCTG | 1.05 ± 0.012 |
| GCCTTACGTC | 1.05 ± 0.052 |
| GCCTTGAGGA | 0.997 ± 0.018 |
| GCCTTGATGT | 1.01 ± 0.032 |
| GCGAAAAAGC | 0.978 ± 0.046 |
| GCGAAAACGC | 1.04 ± 0.039 |
| GCGAAAGTTT | 1.01 ± 0.013 |
| GCGAACTTGG | 0.977 ± 0.016 |
| GCGAAGACAA | 1.04 ± 0.048 |
| GCGAATCGCT | 0.9675 ± 0.0058 |
| GCGAATTGGA | 1.028 ± 0.0019 |
| GCGACAAGCT | 0.997 ± 0.015 |
| GCGACAGATG | 1.01 ± 0.027 |
| GCGACAGGGT | 1.023 ± 0.0055 |
| GCGACCATCC | 1.8 ± 0.08 |
| GCGAGAACTA | 0.967 ± 0.024 |
| GCGAGAAGAG | 1.003 ± 0.0092 |
| GCGAGATCCG | 1.01 ± 0.011 |
| GCGAGGACAT | 1.04 ± 0.012 |
| GCGAGGGGCG | 1 ± 0.062 |

| Sequence | switch fluorescence ratio |
| --- | --- |
| GCGAGGGGGA | 0.984 ± 0.046 |
| GCGAGGGTGG | 1.02 ± 0.018 |
| GCGAGTCTCA | 1.007 ± 0.01 |
| GCGAGTGCGG | 1.02 ± 0.018 |
| GCGAGTTTGC | 1.02 ± 0.017 |
| GCGATAGCAG | 1.03 ± 0.036 |
| GCGATAGGGC | 1.02 ± 0.065 |
| GCGATCAAGG | 1.02 ± 0.012 |
| GCGATCAATC | 1.71 ± 0.029 |
| GCGATCCCCT | 1.77 ± 0.72 |
| GCGATGCTGC | 1.24 ± 0.08 |
| GCGATGTAGA | 1.051 ± 0.0087 |
| GCGATTAAG | 0.981 ± 0.017 |
| GCGATTGTAA | 0.985 ± 0.024 |
| GCGATTTTAA | 1.02 ± 0.048 |
| GCGATTTTTG | 0.986 ± 0.041 |
| GCGCAAAATT | 0.9973 ± 0.0046 |
| GCGCAAGGGG | 1.01 ± 0.015 |
| GCGCAGCGGC | 1.09 ± 0.023 |
| GCGCAGGCTT | 0.986 ± 0.022 |
| GCGCATAAGG | 1.039 ± 0.0057 |
| GCGCATCATT | 0.986 ± 0.025 |
| GCGCCTGTAT | 0.986 ± 0.046 |
| GCGCGCGGAA | 1.016 ± 0.0016 |
| GCGCGGAACG | 0.998 ± 0.047 |

| Sequence | switch fluorescence ratio |
| --- | --- |
| GCGCGGGAAC | 1.46 ± 0.17 |
| GCGCGTGCAC | 0.988 ± 0.042 |
| GCGCTAGCAG | 0.99 ± 0.018 |
| GCGCTATGAG | 1.04 ± 0.02 |
| GCGCTGGTTA | 0.9941 ± 0.0027 |
| GCGCTGTGTG | 1 ± 0.041 |
| GCGCTTTCAC | 1.53 ± 0.026 |
| GCGGAAAGGC | 1.01 ± 0.0025 |
| GCGGAAGGTG | 1.55 ± 0.032 |
| GCGGAATGCA | 0.997 ± 0.025 |
| GCGGACCGGT | 0.968 ± 0.04 |
| GCGGAGAAAT | 1.4 ± 0.3 |
| GCGGATAGAA | 1.04 ± 0.017 |
| GCGGATGCGT | 1.03 ± 0.048 |
| GCGGATGTGC | 1.036 ± 0.0078 |
| GCGGATTTGT | 0.998 ± 0.038 |
| GCGGCAAGGA | 1.04 ± 0.017 |
| GCGGCCCGAG | 0.962 ± 0.022 |
| GCGGCCGAGG | 1.02 ± 0.041 |
| GCGGCCTTGT | 1.04 ± 0.011 |
| GCGGCCTTTC | 1.2 ± 0.23 |
| GCGGCGAGGA | 1.02 ± 0.038 |
| GCGGCGGAGG | 0.995 ± 0.032 |
| GCGGCTGCTG | 1.04 ± 0.062 |
| GCGGCTGG | 0.963 ± 0.022 |
